Laboratory results from US10640563B2, “Anti-B7-H3 antibodies and antibody drug conjugates” (AbbVie Inc., priority 2016, dated 2020).

T1: B7-H3 (Homo sapiens, UniProt Q5ZPR3)
T1 construct: His tag (6xHis) (C); made in house
T1 sequence (Q5ZPR3 with tags, fused parts or gaps): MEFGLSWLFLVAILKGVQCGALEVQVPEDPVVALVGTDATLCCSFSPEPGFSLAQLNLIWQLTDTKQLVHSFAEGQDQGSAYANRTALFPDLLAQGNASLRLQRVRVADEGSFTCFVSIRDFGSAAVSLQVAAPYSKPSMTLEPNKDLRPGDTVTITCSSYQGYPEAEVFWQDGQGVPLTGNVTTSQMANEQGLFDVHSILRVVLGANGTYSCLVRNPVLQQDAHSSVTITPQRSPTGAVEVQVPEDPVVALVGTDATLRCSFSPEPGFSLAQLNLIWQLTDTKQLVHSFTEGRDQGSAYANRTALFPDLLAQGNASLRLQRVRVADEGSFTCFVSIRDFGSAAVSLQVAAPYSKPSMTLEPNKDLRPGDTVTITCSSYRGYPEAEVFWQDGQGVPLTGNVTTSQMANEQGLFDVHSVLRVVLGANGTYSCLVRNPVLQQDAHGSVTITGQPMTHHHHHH

T2: soluble ECD of human B7-H3 (Homo sapiens, UniProt Q5ZPR3)
T2 construct: His tag (6xHis) (C); made in house
T2 sequence (Q5ZPR3 with tags, fused parts or gaps): T1 sequence (Q5ZPR3 with tags, fused parts or gaps)

B1: Ab3: murine anti-B7-H3 mAb (mouse hybridoma derived) (antibody, V domains shown)
VH: QVQLQQPGAELVKPGASVKLSCKASGYTFSSYWMHWVKQRPGQGLEWIGLIHPDSGSTNYNEMFKNKATLTVDRSSSTAYVQLSSLTSEDSAVYFCAGGGRLYFDYWGQGTTLTVSS
VL: DVVMTQTPLSLPVSLGDQASISCRSSQSLVHSNGDTYLRWYLQKPGQSPKLLIYKVSNRFSGVPDRFSGSGSGTDFTLKITRVEAEDLGVYFCSQSTHVPYTFGGGTKLEIK
B2: Ab4: murine anti-B7-H3 mAb (mouse hybridoma derived) (antibody, V domains shown)
VH: QVQLQQPGAELVKPGASVKLSCKASGYSFTSYWMHWVKQRPGQGLEWIGMIHPNSGSNNYNEKFKSKATLTVDKSSNTAYMQLSSLTSEDSAVYYCARRLGLHFDYWGQGTTLTVSS
VL: DIVMTQSQKFMSTPVGDRVSITCKASQNVGTAVAWYQQKPGQSPKLLIYSASNRYTGVPDRFTGSGSGTDFTLTISNMQSEDLADYFCQQYSSYPYTFGGGTKLEIK
B3: Ab5: murine anti-B7-H3 mAb (mouse hybridoma derived) (antibody, V domains shown)
VH: QVQLQQPGDELVKPGASVKLSCKTSGYTFTTDWMHWVKQRPGQGLEWIGMIHPNSGTTNYNEKFKSKAALTVDKSSSTACMQLSSLTSEDSAVYYCARSYWKWYFDVWGTGTTVTVSS
VL: QIVLTQSPAIMSASLGEEITLTCSASSSVSYMHWYQQKSGTSPKLLIYSTSNLASGVPSRFSGSGSGTFYSLTISSVEAEDSADYYCHQWTSYMYTFGGGTKLEIK
B4: Ab11: murine anti-B7-H3 mAb (mouse hybridoma derived) (antibody, V domains shown)
VH: EVKLVESGGGLVQPGGSLRLSCATSGFTFTNYYMSWVRQPPGKALEWLGFIRNKANDYTTEYSASVKGRFTISRDNSQSILYLQMNTLRAEDSATYYCARESPGNPFAYWGQGTLVTVSA
VL: DIVMTQSPSSLTVTAGEKVTMTCKSSQSLLNSGTQKNFLTWYQQKPGQPPKLLIYWASTRESGVPDRFTGSGSGTDFTLTISSVQAEDLAVYFCQNDYIYPLTFGAGTKLELK
B5: Ab12: murine anti-B7-H3 mAb (mouse hybridoma derived) (antibody, V domains shown)
VH: EVQLVESGGGLVKPGGSLKLSCAASGFTFSSYAMSWVRQTPEKRLEWVATISSGTNYTYYPDSVKGRFTISRDNAKNTLYLQMTSLRSEDTAMYYCARQGRYSWIAYWGQGTLVTVSA
VL: DIVLTQSPASLAVSLGQRATISCRASKSVSTSDYSYMHWNQQKPGQPPKLLIYLASNLESGVPARFSGSGSGTDFTLNIHPVEEEDAATYYCQHSRELLTFGAGTKLELK

Biological target: T1, B7-H3
Experiment: Pair-wise SPR binding assay for epitope grouping
Conditions: simultaneous binding assay, 12° C.
Source text: Pair-wise binding assays performed on Biacore T200 SPR instruments were used to determine the relative epitope grouping for the murine anti-B7-H3 mAbs as described in the methods below. […] Epitope groups are represented as individual ovals, some of which overlap with each other. Antibodies in different epitope groups can bind to B7-H3 simultaneously and likely bind to different epitopes while antibodies within a given epitope group cannot bind to B7-H3 simultaneously and likely bind to overlapping epitopes. The grouping information was derived from a simultaneous binding assay as described in materials and methods. Ab3, Ab4, Ab5, Abl 1, Ab12, and Ab8 groupings were ambiguous.
Pair-wise binding assays performed on Biacore T200 SPR instruments were used to determine the relative epitope grouping for a series of anti-B7-H3 mAbs. The assay format was Fc-based capture via immobilized anti-mouse(Fc) (Pierce 31170) or immobilized anti-human (Fc) (Pierce 31125). A standard amine coupling protocol was employed to immobilize the capture reagents via primary amines to the carboxy-methyl (CM) dextran surface of CM5 sensorchips (Biacore); capture antibodies were coupled to a level of approximately 2000 RU. Epitope grouping measurements were done at 12° C. (low temperature allows for grouping information on fast off-rate mAbs), the assay buffer was HBS-EP+(Biacore): 10 mM Hepes, pH7.4, 150 mM NaCl, 3 mM EDTA, 0.05% polysorbate 20. Each assay cycle consisted of the following steps in a four flowcell system: 1) separate test mAbs were captured in flowcells 2, 3 & 4 (flowcell 1 was reference, no test mAb); 2) all 4 flowcells were then blocked by injection with isotype control mAb or isotype mAb cocktail at 50 μg/mL; 3) all 4 flowcells were then injected with antigen or buffer only (buffer only is for double referencing, done for each mAb pair individually); 4) all 4 flowcells were then injected with 2nd test mAb at 10 μg/mL; 5) all 4 flowcells were then regenerated with glycine, pH1.5. The assay was done for each test mAb pair in reciprocal orientations. Simultaneous binding was evaluated examining the ratio of the 2nd test mAb response to the Ag response (RUmAb2/RUAg); if this ratio was equal to or greater than 0.2 the interaction was scored as a simultaneous binder. From this pair-wise binding assay data a “venn” style diagram was constructed manually to depict relative epitope groupings.

How did the “relative human B7-H3 epitope grouping” value turn out when B1 was run?
The value was “ambiguous”.

B2 was tested. Which “relative human B7-H3 epitope grouping” value did it give?
Its value is “ambiguous”.

With B3 as the molecule, how does the “relative human B7-H3 epitope grouping” value read?
The value was “ambiguous”.

Which “relative human B7-H3 epitope grouping” value does the source give for B4 here?
The value was “ambiguous”.

How did the “relative human B7-H3 epitope grouping” value turn out when B5 was run?
The value was “ambiguous”.

System: soluble ECD of cyno B7-H3
Sequence (as listed by the source): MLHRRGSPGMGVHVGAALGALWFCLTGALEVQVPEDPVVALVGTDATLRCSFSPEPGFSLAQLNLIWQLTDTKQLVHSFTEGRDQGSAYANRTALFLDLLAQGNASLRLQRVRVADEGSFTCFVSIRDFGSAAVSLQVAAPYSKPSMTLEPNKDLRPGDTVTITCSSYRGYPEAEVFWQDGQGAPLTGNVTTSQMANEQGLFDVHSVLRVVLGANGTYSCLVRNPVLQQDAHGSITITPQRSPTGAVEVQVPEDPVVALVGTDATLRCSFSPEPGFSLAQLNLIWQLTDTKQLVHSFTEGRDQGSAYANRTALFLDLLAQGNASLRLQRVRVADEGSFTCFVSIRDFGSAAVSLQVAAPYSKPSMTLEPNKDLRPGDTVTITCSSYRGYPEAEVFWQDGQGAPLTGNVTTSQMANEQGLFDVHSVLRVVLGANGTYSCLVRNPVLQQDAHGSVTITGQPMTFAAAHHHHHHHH
Experiment: Biacore T200 SPR binding kinetics, mAb capture
Design: species or system cynomolgus monkey
Conditions: Biacore T200, Fc capture of mAb, B7-H3 ECD as analyte, 1:1 binding model

Which results are given for B1?
cynoB7-H3 ka: 380000 M⁻¹ s⁻¹; cynoB7-H3 kd: 0.01 s⁻¹

B2 was tested. Which “cynoB7-H3 ka” value did it give?
Its value is 540000 M⁻¹ s⁻¹.

What about the “cynoB7-H3 kd” value of the same molecule?
Its value is 0.00096 s⁻¹.

B3 was tested. Which “cynoB7-H3 ka” value did it give?
The value was 1.4e+06 M⁻¹ s⁻¹.

And the “cynoB7-H3 kd” value?
Its value is 0.28 s⁻¹.

What does the source list for B4?
cynoB7-H3 ka: 27000 M⁻¹ s⁻¹; cynoB7-H3 kd: 7.2e-05 s⁻¹

Which “cynoB7-H3 ka” value does the source give for B5 here?
Its value is 55000 M⁻¹ s⁻¹.

And the “cynoB7-H3 kd” value?
Its value is 1e-05 s⁻¹.

Biological target: T2, soluble ECD of human B7-H3
Experiment: Biacore T200 SPR binding kinetics, mAb capture
Conditions: Biacore T200, Fc capture of mAb, B7-H3 ECD as analyte, 1:1 binding model
Protocol: The binding affinity of the purified anti-B7-H3 monoclonal antibodies was determined by surface […]. […] The binding kinetics were derived from SPR measurements using a Biacore T200 instrument and a mAb capture approach (as described in the materials and methods below).
Biacore T200 SPR instruments were used to measure the binding kinetics of human B7-H3 (analyte) binding to various mAbs (ligands). The assay format was Fc-based capture via immobilized anti-mouse (Fc) (Pierce 31170) or immobilized anti-human (Fc) (Pierce 31125). A standard amine coupling protocol was employed to immobilize the capture reagents via primary amines to the carboxy-methyl (CM) dextran surface of CM5 sensorchips (Biacore); capture antibodies were coupled to a level of approximately 5000 RU. For binding kinetic measurements the assay buffer was HBS-EP+ (Biacore): 10 mM Hepes, pH7.4, 150 mM NaCl, 3 mM EDTA, 0.05% polysorbate 20. During the assay, all measurements were referenced against the capture surface alone. Each assay cycle consisted of the following steps: 1) Capture of ligand to approximately 50 RU; 2) Analyte injection over both reference and test surface, 240 μL at 80 μL/min, after which the dissociation was monitored for 900 seconds at 80 μL/min; 3) Regeneration of capture surface with low pH glycine. For kinetic determinations analyte injections were 3-point, 9-fold dilution series of 900 nM, 100 nM and 11.11 nM, buffer only injections were included for secondary referencing. Data were processed and fit to a 1:1 binding model using Biacore T200 Evaluation Software to determine the binding kinetic rate constants, ka (on-rate) and kd (off-rate), and the equilibrium dissociation constant (affinity, KD).

Which “huB7-H3 ka” value does the source give for B1 here?
Its value is 520000 M⁻¹ s⁻¹.

What about the “huB7-H3 kd” value of the same molecule?
The value was 0.01 s⁻¹.

Which results are given for B2?
huB7-H3 ka: 690000 M⁻¹ s⁻¹; huB7-H3 kd: 0.0011 s⁻¹

Which “huB7-H3 ka” value does the source give for B3 here?
The value was 1.3e+06 M⁻¹ s⁻¹.

What about the “huB7-H3 kd” value of the same molecule?
Its value is 0.012 s⁻¹.

Which results are given for B4?
huB7-H3 ka: 20000 M⁻¹ s⁻¹; huB7-H3 kd: 0.00089 s⁻¹

How did the “huB7-H3 ka” value turn out when B5 was run?
Its value is 38000 M⁻¹ s⁻¹.

And the “huB7-H3 kd” value?
The value was 0.00025 s⁻¹.
